# Data as given in paper PMC12107181 (2025).
# B1: AD-TCP3 [Arabidopsis] / BD-COP1 [Arabidopsis] (parent complex)
# chain 1: MAPDNDHFLDSPSPPLLEMRHHQSATENGGGCGEIVEVQGGHIVRSTGRKDRHSKVCTAKGPRDRRVRLSAPTAIQFYDVQDRLGFDRPSKAVDWLITKAKSAIDDLAQLPPWNPADTLRQHAAAAANAKPRKTKTLISPPPPQPEETEHHRIGEEEDNESSFLPASMDSDSIADTIKSFFPVASTQQSYHHQPPSRGNTQNQDLLRLSLQSFQNGPPFPNQTEPALFSGQSNNQLAFDSSTASWEQSHQSPEFGKIQRLVSWNNVGAAESAGSTGGFVFASPSSLHPVYSQSQLLSQRGPLQSINTPMIRAWFDPHHHHHHHQQSMTTDDLHHHHPYHIPPGIHQSAIPGIAFASSGEFSGFRIPARFQGEQEEHGGDNKPSSASSDSRH
# chain 2: MEEISTDPVVPAVKPDPRTSSVGEGANRHENDDGGSGGSEIGAPDLDKDLLCPICMQIIKDAFLTACGHSFCYMCIITHLRNKSDCPCCSQHLTNNQLYPNFLLDKLLKKTSARHVSKTASPLDQFREALQRGCDVSIKEVDNLLTLLAERKRKMEQEEAERNMQILLDFLHCLRKQKVDELNEVQTDLQYIKEDINAVERHRIDLYRARDRYSVKLRMLGDDPSTRNAWPHEKNQIGFNSNSLSIRGGNFVGNYQNKKVEGKAQGSSHGLPKKDALSGSDSQSLNQSTVSMARKKRIHAQFNDLQECYLQKRRQLADQPNSKQENDKSVVRREGYSNGLADFQSVLTTFTRYSRLRVIAEIRHGDIFHSANIVSSIEFDRDDELFATAGVSRCIKVFDFSSVVNEPADMQCPIVEMSTRSKLSCLSWNKHEKNHIASSDYEGIVTVWDVTTRQSLMEYEEHEKRAWSVDFSRTEPSMLVSGSDDCKVKVWCTRQEASVINIDMKANICCVKYNPGSSNYIAVGSADHHIHYYDLRNISQPLHVFSGHKKAVSYVKFLSNNELASASTDSTLRLWDVKDNLPVRTFRGHTNEKNFVGLTVNSEYLACGSETNEVYVYHKEITRPVTSHRFGSPDMDDAEEEAGSYFISAVCWKSDSPTMLTANSQGTIKVLVLAA
# B2: AD-PAP2 [Arabidopsis] / BD-COP1 [Arabidopsis] (parent complex)
# chain 1: MEGSSKGLRKGAWTAEEDSLLRLCIDKYGEGKWHQVPLRAGLNRCRKSCRLRWLNYLKPSIKRGRLSNDEVDLLLRLHKLLGNRWSLIAGRLPGRTANDVKNYWNTHLSKKHESSCCKSKMKKKNIISPPTTPVQKIGVFKPRPRSFSVNNGCSHLNGLPEVDLIPSCLGLKKNNVCENSITCNKDDEKDDFVNNLMNGDNMWLENLLGENQEADAIVPEATTAEHGATLAFDVEQLWSLFDGETVELD
# chain 2: B1 chain 2
# B3: AD-TCP10 [Arabidopsis] / BD-COP1 [Arabidopsis] (parent complex)
# chain 1: MGLKGYSVGEGGGEIVEVQGGHIIRATGRKDRHSKVFTSKGPRDRRVRLSAHTAIQFYDVQDRLGYDRPSKAVDWLIKKAKTAIDKLELGETTTTTTRQEPVNTKPESPTLVFQRENNDQTQFVAANLDPEDAMKTFFPATTTTNGGGGTNINFQNYPHQDDNNMVSRTTTPPPNLSQDLGLSLHPFQGNNNTVVVPETNNFTTTHFDTFGRISGWNHHDLTMTSSSSSEHQQQEQEERSNGGFMVNHHPHHHHHQPSMMTLLNSQQQQVFLGGQQQQQQRGTLQSSLFPHSFRSWDHHQTTSDHHHHQNQASSMFASSSQYGSHGMMMMQGLSFPNTTRLLHGEEATQPNSSSSPPNSHL
# chain 2: B1 chain 2
# Variants of: B1
# Assay: Y2H assay (β-galactosidase activity); parent: 3; read off a plot
row,Variant,response
1,chain 2 W467A,~0.86 Miller units

# Variants of: B1
# Assay: Y2H assay (β-galactosidase activity); parent: 2.7; read off a plot
row,Variant,response
1,chain 2 F595A,~0.86 Miller units

# Variants of: B2
# Assay: Y2H assay (β-galactosidase activity); parent: 15; read off a plot
row,Variant,response
1,chain 2 W467A,~2.1 Miller units

# Variants of: B2
# Assay: Y2H assay (β-galactosidase activity); parent: 21; read off a plot
row,Variant,response
1,chain 2 F595A,~3.6 Miller units

# Variants of: B3
# Assay: Y2H assay (β-galactosidase activity); parent: 0.92; read off a plot
row,Variant,response
1,"chain 1 V196A, chain 1 P197A",~1.1 Miller units
